Four molecules from patent publication US20230140397A1 (JIANGSU HENGRUI PHARMACEUTICALS, published 2023) can be followed below.

Test [1] has as its target T1, prostate specific membrane antigen (PSMA) on prostate cancer cells (human, UniProt Q04609 1-750).
T1 construct: whole, on cells; Printed expression order: MDA PCa 2b > LNCaP > 22Rv1; also called glutamate carboxypeptidase II (GCPII); FOLH1
Briefly: flow cytometry on MDA PCa 2b cells (PSMA-expressing), FITC anti-human IgG detection. (In flow cytometry, cells or beads pass a laser one at a time.)

In test [2] the target is T1, prostate specific membrane antigen …. Briefly: flow cytometry on MDA PCa 2b cells, FITC anti-human IgG secondary. On the procedure: (§1) In this experiment, fluorescence signals of antibodies on the cell surface were detected, and the binding of the antibodies was evaluated according to the intensity of the fluorescence signals.
(§2) The cells were incubated with an FITC-labeled goat anti-human IgG (H+L) secondary antibody (Jackson Immuno Research, 109-095-003) at 4° C. for 30 min, and then excess antibodies were washed off. The fluorescence signals on the cell surface were read using BD CantoII. The results are shown in Table 2, FIG. 1A, FIG. 1B, FIG. 1C, FIG. 1D, and FIG. 1E.

The target is the same in test [3]. Briefly: cell-based or functional assay.
Test [4] shares this target. Briefly: flow cytometry on LNCaP cells, FITC anti-human IgG secondary. On the procedure: as §1, §2
Test [5] has the same target. Briefly: flow cytometry on 22Rv1 cells, FITC anti-human IgG secondary. On the procedure:
as §1, §2

T1 sequence (Q04609 whole entry): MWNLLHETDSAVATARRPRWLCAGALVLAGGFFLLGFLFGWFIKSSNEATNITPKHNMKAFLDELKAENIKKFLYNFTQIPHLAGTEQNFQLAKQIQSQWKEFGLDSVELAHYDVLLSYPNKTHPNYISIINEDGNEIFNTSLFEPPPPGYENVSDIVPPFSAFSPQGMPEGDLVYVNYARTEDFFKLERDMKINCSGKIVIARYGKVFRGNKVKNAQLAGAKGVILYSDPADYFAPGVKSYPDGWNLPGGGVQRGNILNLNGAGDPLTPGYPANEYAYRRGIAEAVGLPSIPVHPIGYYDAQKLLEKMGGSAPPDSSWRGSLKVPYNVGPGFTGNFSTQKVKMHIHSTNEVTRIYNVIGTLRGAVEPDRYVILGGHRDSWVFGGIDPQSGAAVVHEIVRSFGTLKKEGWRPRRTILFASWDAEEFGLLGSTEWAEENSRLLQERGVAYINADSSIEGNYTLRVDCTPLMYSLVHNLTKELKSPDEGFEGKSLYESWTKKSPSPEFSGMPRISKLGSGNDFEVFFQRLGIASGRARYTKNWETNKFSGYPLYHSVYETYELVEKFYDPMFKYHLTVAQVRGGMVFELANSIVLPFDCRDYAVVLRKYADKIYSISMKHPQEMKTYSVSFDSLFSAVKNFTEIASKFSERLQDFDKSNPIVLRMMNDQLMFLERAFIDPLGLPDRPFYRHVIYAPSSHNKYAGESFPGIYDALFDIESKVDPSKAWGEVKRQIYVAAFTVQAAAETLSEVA

B1: Lmab-9-A (control antibody-drug conjugate of labeuzumab with compound 9-A, n=7.07) (antibody, human IgG1, kappa, V domains shown)
VH: EVQLVESGGGVVQPGRSLRLSCSASGFDFTTYWMSWVRQAPGKGLEWIGEIHPDSSTINYAPSLKDRFTISRDNAKNTLFLQMDSLRPEDTGVYFCASLYFGFPWFAYWGQGTPVTVSS
VL: DIQLTQSPSSLSASVGDRVTITCKASQDVGTSVAWYQQKPGKAPKLLIYWTSTRHTGVPSRFSGSGSGTDFTFTISSLQPEDIATYYCQQYSLYRSFGQGTKVEIKR
modifications: drug-linker compound 9-A coupled to cysteine after TCEP reduction; positions not given; mean n=7.07 per antibody (UV-Vis)
notes: also called control ADC Lmab-9-A; ADCLmab-9-A
B1: the binding result in test [1] is on record as “no binding”.

B2: Antibody PM (intact full-length anti-PSMA antibody PM, variable regions of AB-PG1-XG1-006) (antibody, V domains shown)
VH: QVQLVESGGGVVQPGRSLRLSCAASGFAFSRYGMHWVRQAPGKGLEWVAVIWYDGSNKYYADSVKGRFTISRDNSKNTQYLQMNSLRAEDTAVYYCARGGDFLYYYYYGMDVWGQGTTVTVSS
VL: DIQMTQSPSSLSASVGDRVTITCRASQGISNYLAWYQQKTGKVPKFLIYEASTLQSGVPSRFSGGGSGTDFTLTISSLQPEDVATYYCQNYNSAPFTFGPGTKVDIKR
notes: Full-length IgG1/kappa (VH-CH1-Fc/VK-CL), expressed in HEK293E cells; also called AB-PG1-XG1-006 (variable regions)
B2: the EC50 in test [2] came out at 1.08 nM; in test [4], 1.42 nM; in test [5], 0.676 nM. In addition, the “Endocytic activity of different cells to the antibodies (IC50, nM); DT3C-mediated cell killing, 22RV1 cells” value in test [3] came to 0.0856 nM.

B3: ADC-10 (exemplary product of the conjugate of formula PM-VcMMAE, n=3.92) (antibody, V domains shown)
VH: QVQLVESGGGVVQPGRSLRLSCAASGFAFSRYGMHWVRQAPGKGLEWVAVIWYDGSNKYYADSVKGRFTISRDNSKNTQYLQMNSLRAEDTAVYYCARGGDFLYYYYYGMDVWGQGTTVTVSS
VL: DIQMTQSPSSLSASVGDRVTITCRASQGISNYLAWYQQKTGKVPKFLIYEASTLQSGVPSRFSGGGSGTDFTLTISSLQPEDVATYYCQNYNSAPFTFGPGTKVDIKR
modifications: VcMMAE coupled via a mercapto group on cysteine after TCEP reduction; positions not given; mean n=3.92 per antibody (CE-SDS); VcMMAE (CAS 646502-53-6) coupled via a mercapto group on cysteine after TCEP reduction; positions not given; mean n=3.92 per antibody (CE-SDS)
notes: also called positive ADC-10
B3: the EC50 in test [2] is 0.954 nM; in test [4], 1.58 nM; in test [5], 0.689 nM.

B4: ADC-2 (exemplary product of the conjugate of formula PM-9-A, n=6.63) (antibody, V domains shown)
VH: QVQLVESGGGVVQPGRSLRLSCAASGFAFSRYGMHWVRQAPGKGLEWVAVIWYDGSNKYYADSVKGRFTISRDNSKNTQYLQMNSLRAEDTAVYYCARGGDFLYYYYYGMDVWGQGTTVTVSS
VL: DIQMTQSPSSLSASVGDRVTITCRASQGISNYLAWYQQKTGKVPKFLIYEASTLQSGVPSRFSGGGSGTDFTLTISSLQPEDVATYYCQNYNSAPFTFGPGTKVDIKR
modifications: drug-linker compound 9-A coupled via a mercapto group on cysteine after TCEP reduction; positions not given; mean n=6.63 per antibody (UV-Vis); drug-linker compound 9-A (exatecan analog with linking unit) coupled via a mercapto group on cysteine after TCEP reduction; positions not given; mean n=6.63 per antibody (UV-Vis)
notes: also called PSMA ADC
Turning to B4, the EC50 in test [2] is 0.718 nM; in test [4], 0.938 nM; in test [5], 0.571 nM.

In general, EC50 refers to the concentration giving half of the maximal effect. Low values mean an effect from little substance, high ones a need for much substance.
